Assay: yeast display, Sf9 membrane polyspecificity reagent, FACS + sequencing; frameworks hold sequencing errors
In short: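 Nanobodies came from a synthetic yeast display library in Saccharomyces cerevisiae BJ5465, induced with galactose for 36–48 hours and stained for 1 hour at 4 °C with 10% biotinylated, detergent-solubilized Sf9 membrane reagent. Cells were enriched on streptavidin microbeads and then FACS-sorted, with low and high (top ~1%) gates set on anti-HA fluorescence for expression and streptavidin fluorescence for reagent binding. Each polyreactivity label reflects the gate a clone came from. Genes were amplified by colony PCR, sequenced by MiSeq 2 × 250 and filtered by CDR length.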

| Sequence | polyreactivity (PSR sort gate) |
| --- | --- |
| QVQLVESGGGLVQAGGSLRLSCAASGSNFDVNAMGWYRQAPGKERELVAAISDSGGSTYYADSVKGRFTISRDNAKNTVYLQMNSLKPEDTAVYYCNADWSWYNYYDFDYWGQGTQVTVSS | low polyreactivity |
| QVQLVESGGGLVQAGGSLRLSCAASGSNFFFNTMGWYRQAPGKERELVAVITSGGSTYYADSVKGRFTISRDNAKNTVYLQMNSLKPEDTAVYYCAARYLPYRRIKYDYWGQGTQVTVSS | low polyreactivity |
| QVQLVESGGGLVQAGGSLRLSCAASGSNFFYYVMGWYRQAPGKERERVAAITRSTGSTYYADSVKGRFTISRDNAKNTVYLQMNSLIPEDTAVYSCAAEGPKWYYSGAFDYWGQGTQVTVSS | low polyreactivity |
| QVQLVESGGGLVQAGGSLRLSCAASGSNFGRYAMGWYRQAPGKESELVAAINDDSGRTYYADTVKGRFTISRDNAKNTVYLQMNSLKPEDTAVYYCAAYRISQGYSTYNYWGQGTQVTVSS | high polyreactivity |
| QVQLVESGGGLVQAGGSLRLSCAASGSNFGYYAMGWYRQAPGQERELVAAINSSGGSTYYADSVKGRFTISRDNAKNTVYLQMNSLKPEDTAVYYCAVRTRYKFNYWGQGTQVTVSS | low polyreactivity |
| QVQLVESGGGLVQAGGSLRLSCAASGSNFHQYAMGWYRQAPGKERELVAGINWSGGSTYYADSVKGRFTISRDNAKNTVYLQMNSLKPEDTAVYYCAKRYQLARAAYTGGYWGQGTQVTVSS | high polyreactivity |
| QVQLVESGGGLVQAGGSLRLSCAASGSNFKLYSMGWYRQAPGKERELVATIRWSGGSTYYADSVKGRFTISRDNAKNTVYLQMNSLKPEDTAVYYCAARRVRPNGYTSSPLDYWGQGTQVTVSS | high polyreactivity |
| QVQLVESGGGLVQAGGSLRLSCAASGSNFKNNAMGWYRQAPGKEREFVASISKRGGSTYYADSVKGRFTISRDNAKNTVYLQMNSLKPEDTEVYYCAKTYWSYGWSHGDYGEFDYWGQGTQVTVSS | high polyreactivity |
| QVQLVESGGGLVQAGGSLRLSCAASGSNFKWYAMGWYRQAPGKERELVSAISKSGGSTYYADSVKGRFTISRDNAKNTVYLQMNSLKPEDTAVYYCNAVYIGSRRRYEYDYWGQGTQVTVSS | high polyreactivity |
| QVQLVESGGGLVQAGGSLRLSCAASGSNFNRYAMGWYRQAPGKERELVAAITSTGGTNYADSVKGRFTISLDNAKNSVYLQMNSLKPEDTAVYYCAKRWLRWRSNYWGQVTQVTVSS | high polyreactivity |
| QVQLVESGGGLVQAGGSLRLSCAASGSNFNVYVMGWYRQAPGKERELVAAISWGDGSTSYADSVKGRFTISRDHAKNTVYLQMNSLKPEDTAVYYCNRRHSYPYDYWGQGTQVTVSS | high polyreactivity |
| QVQLVESGGGLVQAGGSLRLSCAASGSNFPHNAMGWYRQAPGKERELVAAITSSGGSTYYADSVKGRFTISRDNAKNTVYLQMNSLKPEDTAVYYCNKGKQRRRYNYWGQGTQVTVSS | high polyreactivity |
| QVQLVESGGGLVQAGGSLRLSCAASGSNFTFYTMGWYRQEPGKERELVAAINWSGSRTYYADSVKGRFTISRDNAKNTVYLQMNSLKPEDTAVYYCDAYYYTGPTTVESDYWGQGTQVTVSS | high polyreactivity |
| QVQLVESGGGLVQAGGSLRLSCAASGSNFTPNTMGWYRQAPAKERELVAGISSGDSTDYADSVKVRFTISRDNAKNTVYLQLNSLNPEDPAVYYCAAPWYGYYSRYDFYYWGQGTQVTVSS | low polyreactivity |
| QVQLVESGGGLVQAGGSLRLSCAASGSNFTYYALGWYRQAPGKERELVAAISKTGGRTYYADSVKGRFTISRDNAKNTVYLQMNSLKPEDTAVYYWAAEAPWQWYGWLRGYDFCGQGTQVTVSS | high polyreactivity |
| QVQLVESGGGLVQAGGSLRLSCAASGSNFVEYAMGWYRQAPGKERELVAGISSGGITSYADSVKGRFTISRDNAKNTVYLQMNSLKPEDTAVYYCATDPYKWFYSSYYLLQEVEYWGQGTQVTVSS | low polyreactivity |
| QVQLVESGGGLVQAGGSLRLSCAASGSNFVGYVMGRYRQAPGKERELVARIRWGGGRTYYADSVKGRFTISRDNAKNRVYLQMKSLKAEDTAVYYCAAVWRTRWAPGYYWGQGTQVTGSS | high polyreactivity |
| QVQLVESGGGLVQAGGSLRLSCAASGSNFVKYVMGWYRQAPGKERELDAAITWRGGRTYYADSVKGRFTISRDNEKNTVYLQMNSLKPEDTAVYYCAAYDQSLYGRRYDYWGQGTQVTVSS | high polyreactivity |
| QVQLVESGGGLVQAGGSLRLSCAASGSNFYPYAMGWYRQAPGKERELVAAITGTGGSTYYADSVKGRFTISRDNAKNTVYLQMNSLKPEDTAVYYCATRRRYYYSRYNYWGQGTQVTVSS | high polyreactivity |
| QVQLVESGGGLVQAGGSLRLSCAASGSNIYHNTMGWYRQAPGKERELITYYADSVKGRFTISRDNAKNTVYLQMNSLKPEDTAVYYCAASPVSRTGPGDYDYWGQGTQVTVSS | low polyreactivity |
| QVQLVESGGGLVQAGGSLRLSCAASGSNSFLYTMRWYRQAPGKERELVAAITGSTASTYYADSVKGRFTISRDNAKNTVYLQMNSLKPEDSAVYYWAAYWYAEGYWVSRDYWGQGTQVTVSS | low polyreactivity |
| QVQLVESGGGLVQAGGSLRLSCAASGSNSRVNAMGWYRQATWKERELVASITKSTGSTYYADSVKGRFTISRDNAKNTVYLQMNSLKPEDTAVYYCAKAASYPVRAFYYWGLGTQVTVSS | high polyreactivity |

| Sequence | polyreactivity (PSR sort gate) |
| --- | --- |
| QVQLVESGGGLVQAGGSLRLSCAASGSNSVYAMGWYRQAPGKERELVAAITISGGITYYADSVKGRFTIARDNAKNTVYLQMNSLKPEDTAVFYCNADQGSALRWSYDYWGQGTQVTVSS | low polyreactivity |
| QVQLVESGGGLVQAGGSLRLSCAASGSNYPPNAMGWYRQAPGKEREFVASITSSGGITNYADSVKGRFTISRDNAKNTVYLQMNSLKPVDTAVYYCAAKYYGGTRFRPYGYWGQGTQVTVSS | high polyreactivity |
| QVQLVESGGGLVQAGGSLRLSCAASGSNYYYYAIGWYRQAPGKERELVAAISWSGASTFYADSVKGRFTSSRDNAKNTVYLQMNSLKPEDTAVYYCAARYYGQPQYQPLYYWGQGTQVTVSS | high polyreactivity |
| QVQLVESGGGLVQAGGSLRLSCAASGSPFGYYAMGWYRQATGKERELVAAITRSGGRTYYADSVKGRFTISRDNAKNTVYLQMNSLKPEDTAVYYCAADRVRRPSPGGMDFWGQGTQVTVSS | high polyreactivity |
| QVQLVESGGGLVQAGGSLRLSCAASGSPFYAYAMGWYRQAPGKERQLVAAITYRDGRTNYADSVKGRFTISRDNAKNTVYLQMNSMKPEDTEVYYCARITGFTVRRYDYWGQGTQVTVSS | high polyreactivity |
| QVQLVESGGGLVQAGGSLRLSCAASGSSFGVNAMGWYRQAPGKERELVADISVRTDSTYYADSVKGRFTISRDNAKNTVYLQMNSLKPEDTAVYYCAAEVPYYYPGFYSYYDDSDYWGQGTQVTVSS | low polyreactivity |
| QVQLVESGGGLVQAGGSLRLSCAASGSSFGYNAMGWYRQAPGKERELVAAISRSGSTYYADSVKGRFTISRDKAKNTVYLHMNSLKPEDTAVYYCDARLWWTFCEYDYWGQGTQVTVSS | high polyreactivity |
| QVQLVESGGGLVQAGGSLRLSCAASGSSFNINAMGWYRQAPGKERELVAAISWSGDITYYADSVKGRFTISRDNAKNTVYLQLNSLKPEDTAVYYCNTDDPGNYWYAEYDYWGQGTQVTVSS | low polyreactivity |
| QVQLVESGGGLVQAGGSLRLSCAASGSSFPGYAMGWYRKAPGKERELVATSTYSDGSTYYADSVKGRFTISRDNAKNTVYLQMNSLKPEDTAVYYCAVTYWWYYGYDYWGQGTQVTVSS | low polyreactivity |
| QVQLVESGGGLVQAGGSLRLSCAASGSSFPYNTMGWYRQAPGKERELVAAISSGASTNYADSVKGRFTISRDNAKNTVYLQMNSLKPEDTAVYYCAAKYNANWDFDYWGQGTQVTVSS | low polyreactivity |
| QVQLVESGGGLVQAGGSLRLSCAASGSSFRGYAMGWSRQAPGKERELVAAISRSGGSTYYADSVKGRFTISRDNAKNTVYLQMKSLKPEDTAVYYCNARCSKRSSRGYDYWGQGTQVTVSS | high polyreactivity |
| QVQLVESGGGLVQAGGSLRLSCAASGSSFRYNAMGWYREAPGKEREMVAAITSSATSTYYADSVKGRFTISRDNAKNTVYLQMNSLKPEATAVYYCAAPPVYKWVSSRYDYWGQGTQVTVSS | low polyreactivity |
| QVQLVESGGGLVQAGGSLRLSCAASGSSFSGNFMGWYRQAPGKERELVAAISGRGGSTYYADSVKGRFTISRDNAKNTVYLQMNSLKPEDTAVYYCDAVYLKTYYWGLGTQVTVSS | high polyreactivity |
| QVQLVESGGGLVQAGGSLRLSCAASGSSFTPNVMGWYRQAPGKERELVAAISQSGGSTFYADSVKGRFTISRDNAKNTVYLQMNSLKPEDTAVYYCATEYYGPVYDLDYDYWGQGTQVTVSS | low polyreactivity |
| QVQLVESGGGLVQAGGSLRLSCAASGSSFTRYAMGWYRQAPGKERELVATINFSGDRTYYADSVKGRFTISRDNAKNTVYLQMNSLKPEDTAVYYCNNYSYQWPYRRFDYWGQGTLVTVSS | high polyreactivity |
| QVQLVESGGGLVQAGGSLRLSCAASGSSFWYNAMGWYRQAPGKERELVATISSRGDGTYYADSVKGRFTISRDNAKNTVYLQMNSLKPEDTAVYYCNKYRQQGWEFDYWGQGTQVTVSS | high polyreactivity |
| QVQLVESGGGLVQAGGSLRLSCAASGSSKLMLWDGIDRRLGKKGSWLPLFVLVVLRNYADSVKGRFTISRDNAKNTVFLHMNSLKPEDTAVYYCAATPIGSGGWGDYWGQGTQVTVSS | low polyreactivity |
| QVQLVESGGGLVQAGGSLRLSCAASGSSVYRYAMGWYRQAPGKERELVAAITWSGGSTYYADSVKGRFTISRDNAKNTVYLQMNSLKPEDSAVYYCAVEPFSNEFYYWGQGTQVTVSS | low polyreactivity |
| QVQLVESGGGLVQAGGSLRLSCAASGSTCFDYAMGWYRQAPGKERELVAAISRSGDTNYADSVKGRFTISRDNAKNTVYLQMNILKPEDTAVYYCAKDWAYRRHWVGFYYWGQGTQVTVSS | low polyreactivity |
| QVQLVESGGGLVQAGGSLRLSCAASGSTCVSNAMGWYRQAPGKERELVAAISSGDNTNYADSVKGRFTISRDNAKNTVYVQMNSLKPEDTAVYYCAARAYRWRSFSTMYYWGQGTQVTVST | high polyreactivity |
| QVQLVESGGGLVQAGGSLRLSCAASGSTFAAKAMGWYRHAPGKERELVAAITSSGGSTYYADSVKGRFTISRDNAKNTVYLQMNSLKPEDTAVYYCNKDNERYVRIYDSWGQGTQVTVAS | low polyreactivity |

— the nanobody polyreactivity screen of Harvey et al. (2022)
